Test results published in the supplement of paper PMC9732359.
± gives the uncertainty stated by the source.

Assay: protein stability index of a GFP-peptide fusion (yeast GPS) (PSI 1-4); higher = more stable; sorted into four equal gates, so the index is relative within each strain
Method in brief: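 Tiled 17-residue peptides from yeast proteins were fused downstream of GFP on a plasmid that also expresses Cherry, and the pooled library was carried in yeast. Mid-log cultures grown in leucine-free medium were sorted into four equal gates by GFP/Cherry fluorescence ratio. Plasmids from each gate were PCR-amplified and Illumina-sequenced, and reads were assigned to strains by barcodes. Each peptide's protein stability index is the sum, over gates, of the gate's read frequency multiplied by its gate number.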

Sequence	protein stability index (doa10∆)	protein stability index (pdr5∆)	protein stability index (san1∆)	protein stability index (ubr1∆)
SRQVQKRPRSRTLTAVH [RPS7A]	2.54 ± 0.035	2.33 ± 0.034	2.41 ± 0.037	2.03 ± 0.032
SRRFKNGFQTGSASKAS [RPL37A]	2.76 ± 0.075	2.73 ± 0.087	3.26 ± 0.17	2.58 ± 0.055
SRRLMKSLEDLSCQYDN [RPO31]	2.04 ± 0.11	1.42 ± 0.17	1.36 ± 0.2	1.27 ± 0.085
SRSSVCVKAIEALFQSR [YCG1]	3.14 ± 0.064	2.92 ± 0.085	3.04 ± 0.077	2.97 ± 0.066
SSATIVLCLTRSSYMLE [YCG1]	1.76 ± 0.035	2.1 ± 0.038	1.91 ± 0.048	2.23 ± 0.032
SSDDRVKVLAATNRVDV [RPT5]	2.66 ± 0.18	2.95 ± 0.26	2.88 ± 0.15	
SSFKEDCLSFAPTLSQT [SSN2]	2.7 ± 0.084	2.67 ± 0.1	3.03 ± 0.086	2.91 ± 0.052
SSFSLTFFPRCIIAVSC [POP1]	1.93 ± 0.029	1.86 ± 0.035	2.07 ± 0.054	2.03 ± 0.037
SSGDFDDNNNNNNNNNN [GRR1]	3.11 ± 0.06	3.18 ± 0.057	3.22 ± 0.063	3.04 ± 0.046
SSISWKNIAQCLSDYTK [YJL039C/NUP192]	2.05 ± 0.08	2.11 ± 0.076	1.87 ± 0.076	2.11 ± 0.058
SSKKSKRLDKVGKKKGG [LRP1]	2 ± 0.08	1.17 ± 0.068	1.91 ± 0.12	1.43 ± 0.057
SSKYAYMMNSQSPRGKI [YLR018C/POM34]	2.83 ± 0.062	2.69 ± 0.065	2.75 ± 0.044	2.78 ± 0.038
SSLFNNSTNSNTTKPAF [YJL041W/NSP1]	2.45 ± 0.054	2.15 ± 0.049	2.61 ± 0.042	2.06 ± 0.037
SSLHSPTSDEPVPESAG [SRB4]	2.61 ± 0.065	3.16 ± 0.081	2.95 ± 0.063	3 ± 0.057
SSLLYTYDENDDFFKEL [ESC2]	2.52 ± 0.13	2.8 ± 0.17	2.62 ± 0.15	2.87 ± 0.094
SSLNGTNAKIPQFDSTQ [SSN3]	3.06 ± 0.08	3 ± 0.093	2.98 ± 0.067	2.97 ± 0.063
SSLVQKGLETIDNGAES [RPC53]	2.65 ± 0.26	3.02 ± 0.21		
SSNISPEQVYSLLLTNV [ARP7]	2.27 ± 0.035	2.48 ± 0.036	2.43 ± 0.04	2.46 ± 0.033
SSNPNSSLHSPTSDEPV [SRB4]	3.09 ± 0.13	2.99 ± 0.079	2.99 ± 0.063	3.15 ± 0.058
SSSSLECATCHGNLASC [RPO31]	2.79 ± 0.046	3.04 ± 0.058	3.05 ± 0.049	2.95 ± 0.037
SSTIDAPAFHTSGKVEL [SRB8]	2.9 ± 0.28		2.94 ± 0.18	2.87 ± 0.082
SSTLGIDLEDIKEELTK [PCI8]	2.93 ± 0.091	3.1 ± 0.094	3.17 ± 0.1	3.02 ± 0.1
SSVIQNYDIITASSLAH [YML103C/NUP188]	1.69 ± 0.079	1.88 ± 0.066	1.98 ± 0.092	2.03 ± 0.041
SSVMSSPRVEKRSFSST [YOR098C/NUP1]	2.75 ± 0.057	2.23 ± 0.041	2.44 ± 0.052	2.54 ± 0.039
STFRLNLSVTSPYNADF [RPO21]	2.21 ± 0.05	2.34 ± 0.054	2.6 ± 0.075	2.93 ± 0.044
STFTKHLIKCFFKITLQ [ITC1]	1.43 ± 0.039	1.28 ± 0.03	1.51 ± 0.058	1.6 ± 0.03

Sequence	protein stability index (doa10∆)	protein stability index (pdr5∆)	protein stability index (san1∆)	protein stability index (ubr1∆)
STGLKSASDALKGRVVE [RPS1A]	3.29 ± 0.078	3.31 ± 0.071	3.48 ± 0.044	3.37 ± 0.084
STIITKAINQELEDVAV [YCS4]	2.96 ± 0.23	3.22 ± 0.11	2.72 ± 0.057	3.04 ± 0.061
STKKIQVATKYASLKLP [YMR129W/POM152]	1.78 ± 0.047	1.93 ± 0.036	1.55 ± 0.069	1.92 ± 0.038
STKKKILGIHTSKMNLS [RPT2]	3.47 ± 0.13	3.21 ± 0.096	3.42 ± 0.071	3.05 ± 0.073
STLHMLGYTHIAINFTV [RPP1]	1.5 ± 0.041	1.39 ± 0.037	1.45 ± 0.067	1.55 ± 0.041
STLKSFFTNPNKKRPSS [YOR098C/NUP1]	2.79 ± 0.052	3.06 ± 0.049	3.08 ± 0.043	2.91 ± 0.045
STLTTISGNPPLLYNSL [SRB5]	2.66 ± 0.043	2.46 ± 0.038	2.49 ± 0.043	2.56 ± 0.036
STLYKYLKESKRKYDEI [SWI3]	3.51 ± 0.12	3.42 ± 0.24	3.21 ± 0.17	2.84 ± 0.15
STPNFGGNSNKSPPQFF [SIN4]	2.88 ± 0.039	3.1 ± 0.043	2.89 ± 0.03	2.9 ± 0.032
STRKTPNGEGSKTWETY [RPS20]	3.19 ± 0.17	3.36 ± 0.16	3.07 ± 0.11	3.34 ± 0.082
STRVEFEKLYSDLMKFL [FAS2]	3.45 ± 0.3	3.27 ± 0.2	3.26 ± 0.15	
STSENKISEGSAKPTFS [YOR098C/NUP1]	3.63 ± 0.18	2.52 ± 0.26	2.8 ± 0.14	3.17 ± 0.097
STSKFESQYPIVTEQPS [SWP82]	2.41 ± 0.041	2.58 ± 0.046	2.41 ± 0.054	2.5 ± 0.04
STSNALKVLSGDEGYNE [SNF12]	3.39 ± 0.11	3.24 ± 0.11	3.04 ± 0.059	3.5 ± 0.13
STSNTPSPPNVIITDGT [YDL088C/ASM4]	2.79 ± 0.031	2.95 ± 0.031	2.9 ± 0.035	2.956 ± 0.029
STSSGKVSYAVKKPQKS [SNM1]	2.04 ± 0.13	2.76 ± 0.1	2.01 ± 0.17	3.02 ± 0.16
STTNSDVSLLLQRDLFI [RGR1]	2.76 ± 0.093	3.06 ± 0.1	2.81 ± 0.067	3.02 ± 0.077
STVIEEFTLFMDIAERI [YGL172W/NUP49]	2.37 ± 0.053	2.71 ± 0.053	2.47 ± 0.049	2.75 ± 0.038
SVAKIRFPETMDETQTR [RPO21]	3.55 ± 0.073	3.34 ± 0.12	3.66 ± 0.063	3.59 ± 0.049
SVAVHFQYVIDESSGTS [SMC4]	1.99 ± 0.081	1.6 ± 0.074	2.01 ± 0.074	1.77 ± 0.055
SVERGRKRAHSLVSTQS [REC8]	3.21 ± 0.082	3.12 ± 0.066	3.26 ± 0.047	3.16 ± 0.042
SVFYNIANMVLPPEKIY [SIR2]	1.78 ± 0.048	1.77 ± 0.043	1.81 ± 0.06	1.55 ± 0.04
SVGLPSKVASSLVIIIL [ECM29]	2.21 ± 0.048	1.8 ± 0.041	2.28 ± 0.064	2.21 ± 0.061
SVGNLEVVKSLYDRPLK [NAS6]	3.29 ± 0.19	2.89 ± 0.2	3.12 ± 0.075	3.34 ± 0.1
SVNFFVSLLKKNWQNVG [RPL1A]	1.19 ± 0.07	1.32 ± 0.063	1.25 ± 0.14	1.46 ± 0.063
SVNPAMLPGSSNGGGKV [RPO31]	2.98 ± 0.071	3.36 ± 0.12	3.07 ± 0.08	3.08 ± 0.06
